Assay results from paper PMC9813724.

Target: LvPrx4 (endogenous, shrimp hemocytes) (Penaeus vannamei (endogenous in hemocytes))
Test: Western blot after SDS-PAGE

LvPrx4 (endogenous, shrimp hemocytes) (natural protein)
stoichiometry N: 2
